Experimental data taken from the supplement of paper PMC10065799, “High-throughput profiling of sequence recognition by tyrosine kinases and SH2 domains using bacterial peptide display” (eLife, 2023).

How the values were obtained:
Grb2 SH2 = Grb2 SH2 (UniProt P62993); experiment: SH2 binding enrichment of the phosphorylated peptide, bacterial display (enrichment ratio); higher = better substrate or ligand; peptides without Tyr show the background
SHP2-C SH2 = experiment: as above
c-Src SH2 = experiment: as above
Hck = Hck (UniProt P08631); experiment: phosphorylation enrichment, bacterial display (enrichment ratio); higher = better substrate or ligand; peptides without Tyr show the background
Fer (mouse) = experiment: as above
FGFR1 = FGFR1 (UniProt P11362); experiment: as above
Jak2 = Jak2 (UniProt O60674); experiment: as above
FGFR3 = FGFR3 (UniProt P22607); experiment: as above
MERTK = MERTK (UniProt Q12866); experiment: as above
Fes = Fes (UniProt P07332); experiment: as above
c-Abl (mouse) = experiment: as above
EPHB2 = EPHB2 (UniProt P29323); experiment: as above
EPHB1 = EPHB1 (UniProt P54762); experiment: as above
c-Src = experiment: as above
Fyn = Fyn (UniProt P06241); experiment: as above
AncSZ = experiment: as above
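Wherever SH2 binding enrichment of the phosphorylated peptide, bacterial display is given: peptide library displayed on the E. coli surface as eCPX fusions, selected cells deep-sequenced, score is each peptide's frequency after selection divided by its frequency in the input.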
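Wherever phosphorylation enrichment, bacterial display is given: 11-residue human phosphosite peptides and single-mutation variants displayed on the E. coli surface, counted by deep sequencing, each peptide's frequency after selection divided by its frequency in the unselected input library; frequency after pTyr selection over input frequency; kinase dosed for 20-30% of maximal phosphorylation in three min.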

Chain of MERTK (Q12866 whole entry, looked up): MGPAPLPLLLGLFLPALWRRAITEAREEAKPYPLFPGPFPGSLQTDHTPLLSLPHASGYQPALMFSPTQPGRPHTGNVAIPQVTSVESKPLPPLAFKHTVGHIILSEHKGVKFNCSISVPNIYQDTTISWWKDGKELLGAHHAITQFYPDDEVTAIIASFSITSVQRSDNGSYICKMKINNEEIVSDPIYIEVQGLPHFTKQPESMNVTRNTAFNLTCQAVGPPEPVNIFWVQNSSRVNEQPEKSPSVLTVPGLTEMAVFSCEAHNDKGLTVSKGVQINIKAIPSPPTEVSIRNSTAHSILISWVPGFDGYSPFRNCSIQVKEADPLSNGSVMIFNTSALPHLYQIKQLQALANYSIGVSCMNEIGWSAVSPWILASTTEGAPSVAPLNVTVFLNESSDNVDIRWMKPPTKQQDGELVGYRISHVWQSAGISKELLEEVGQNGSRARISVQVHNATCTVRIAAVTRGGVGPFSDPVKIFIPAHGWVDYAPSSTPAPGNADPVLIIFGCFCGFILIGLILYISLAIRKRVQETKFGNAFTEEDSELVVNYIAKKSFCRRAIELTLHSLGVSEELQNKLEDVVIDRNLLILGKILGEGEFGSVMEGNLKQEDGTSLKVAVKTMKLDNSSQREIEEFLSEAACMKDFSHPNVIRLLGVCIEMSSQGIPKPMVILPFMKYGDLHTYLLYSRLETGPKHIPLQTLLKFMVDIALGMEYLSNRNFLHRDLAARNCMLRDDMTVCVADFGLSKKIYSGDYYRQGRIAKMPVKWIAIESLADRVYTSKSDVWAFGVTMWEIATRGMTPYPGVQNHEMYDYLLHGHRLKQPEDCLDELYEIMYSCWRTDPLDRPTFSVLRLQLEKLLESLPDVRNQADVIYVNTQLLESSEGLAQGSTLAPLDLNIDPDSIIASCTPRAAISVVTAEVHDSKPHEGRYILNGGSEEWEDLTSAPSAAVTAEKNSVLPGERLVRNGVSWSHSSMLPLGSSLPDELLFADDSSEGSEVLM
Chain of Fes (P07332 whole entry, looked up): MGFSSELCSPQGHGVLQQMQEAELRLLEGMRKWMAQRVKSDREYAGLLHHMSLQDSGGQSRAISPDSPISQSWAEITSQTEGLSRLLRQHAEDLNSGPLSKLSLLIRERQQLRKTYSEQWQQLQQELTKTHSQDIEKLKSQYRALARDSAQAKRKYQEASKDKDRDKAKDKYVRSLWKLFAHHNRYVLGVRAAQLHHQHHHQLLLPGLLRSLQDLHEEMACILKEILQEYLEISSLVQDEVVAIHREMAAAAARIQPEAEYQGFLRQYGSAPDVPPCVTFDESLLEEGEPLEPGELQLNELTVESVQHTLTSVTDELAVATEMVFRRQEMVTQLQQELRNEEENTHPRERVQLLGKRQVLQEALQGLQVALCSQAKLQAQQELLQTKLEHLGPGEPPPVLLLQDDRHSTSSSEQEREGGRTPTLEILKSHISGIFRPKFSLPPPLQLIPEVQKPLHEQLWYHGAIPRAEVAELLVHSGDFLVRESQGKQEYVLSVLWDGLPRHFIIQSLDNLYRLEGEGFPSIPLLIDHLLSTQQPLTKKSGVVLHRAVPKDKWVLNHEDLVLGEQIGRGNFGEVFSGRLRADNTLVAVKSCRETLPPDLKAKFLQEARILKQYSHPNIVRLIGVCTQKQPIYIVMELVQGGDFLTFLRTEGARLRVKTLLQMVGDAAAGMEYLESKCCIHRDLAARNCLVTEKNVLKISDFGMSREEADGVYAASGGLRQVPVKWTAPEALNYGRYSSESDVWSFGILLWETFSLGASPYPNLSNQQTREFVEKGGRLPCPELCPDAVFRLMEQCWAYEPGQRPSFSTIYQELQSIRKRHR
Chain of EPHB2 (P29323 whole entry, looked up): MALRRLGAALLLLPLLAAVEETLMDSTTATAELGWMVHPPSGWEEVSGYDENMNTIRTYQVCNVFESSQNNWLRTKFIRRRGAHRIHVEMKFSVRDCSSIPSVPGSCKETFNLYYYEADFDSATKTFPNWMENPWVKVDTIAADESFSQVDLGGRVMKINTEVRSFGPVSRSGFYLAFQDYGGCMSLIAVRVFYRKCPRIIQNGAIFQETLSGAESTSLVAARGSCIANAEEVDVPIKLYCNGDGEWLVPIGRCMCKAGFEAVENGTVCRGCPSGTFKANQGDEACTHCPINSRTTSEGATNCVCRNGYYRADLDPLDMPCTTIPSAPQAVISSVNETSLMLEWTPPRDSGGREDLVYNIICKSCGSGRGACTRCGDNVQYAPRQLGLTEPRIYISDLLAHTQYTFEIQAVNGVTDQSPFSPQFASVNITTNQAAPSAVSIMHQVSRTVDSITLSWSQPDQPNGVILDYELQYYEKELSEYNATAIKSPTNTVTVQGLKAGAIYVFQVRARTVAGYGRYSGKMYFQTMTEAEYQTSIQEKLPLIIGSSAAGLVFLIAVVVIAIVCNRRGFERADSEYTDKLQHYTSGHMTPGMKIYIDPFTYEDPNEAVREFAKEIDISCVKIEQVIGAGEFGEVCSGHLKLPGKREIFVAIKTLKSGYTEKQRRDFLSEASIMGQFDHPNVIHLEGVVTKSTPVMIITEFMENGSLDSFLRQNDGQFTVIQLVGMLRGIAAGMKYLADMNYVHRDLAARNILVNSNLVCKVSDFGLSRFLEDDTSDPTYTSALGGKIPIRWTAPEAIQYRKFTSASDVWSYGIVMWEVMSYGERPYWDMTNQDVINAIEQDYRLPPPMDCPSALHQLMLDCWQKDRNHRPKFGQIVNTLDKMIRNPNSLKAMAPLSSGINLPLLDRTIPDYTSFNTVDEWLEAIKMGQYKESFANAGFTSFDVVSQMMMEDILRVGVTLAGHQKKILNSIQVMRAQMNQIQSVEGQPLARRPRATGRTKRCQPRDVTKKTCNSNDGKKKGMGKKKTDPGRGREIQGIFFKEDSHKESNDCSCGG
Chain of FGFR1 (P11362 whole entry, looked up): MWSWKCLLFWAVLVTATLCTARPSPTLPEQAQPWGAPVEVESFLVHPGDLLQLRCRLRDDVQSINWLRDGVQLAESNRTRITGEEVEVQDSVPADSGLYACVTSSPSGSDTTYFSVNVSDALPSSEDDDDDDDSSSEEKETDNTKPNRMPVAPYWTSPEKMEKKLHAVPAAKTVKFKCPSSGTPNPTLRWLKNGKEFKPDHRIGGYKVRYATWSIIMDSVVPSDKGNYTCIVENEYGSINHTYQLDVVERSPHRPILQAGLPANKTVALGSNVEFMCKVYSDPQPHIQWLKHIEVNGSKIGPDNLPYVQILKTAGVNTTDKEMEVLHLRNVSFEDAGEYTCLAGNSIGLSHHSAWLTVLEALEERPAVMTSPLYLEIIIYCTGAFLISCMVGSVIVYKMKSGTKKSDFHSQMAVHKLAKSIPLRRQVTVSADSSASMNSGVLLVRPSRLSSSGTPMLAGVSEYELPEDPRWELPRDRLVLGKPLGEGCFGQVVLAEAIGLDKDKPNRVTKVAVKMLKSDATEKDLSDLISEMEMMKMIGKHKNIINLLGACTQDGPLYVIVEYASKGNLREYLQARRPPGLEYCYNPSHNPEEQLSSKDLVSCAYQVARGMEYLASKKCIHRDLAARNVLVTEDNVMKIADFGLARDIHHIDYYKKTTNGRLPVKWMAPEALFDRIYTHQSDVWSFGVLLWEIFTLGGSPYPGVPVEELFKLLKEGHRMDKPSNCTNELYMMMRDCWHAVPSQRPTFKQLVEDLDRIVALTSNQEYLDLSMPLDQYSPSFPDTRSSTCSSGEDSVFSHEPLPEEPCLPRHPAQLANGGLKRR
Chain of Jak2 (O60674 whole entry, looked up): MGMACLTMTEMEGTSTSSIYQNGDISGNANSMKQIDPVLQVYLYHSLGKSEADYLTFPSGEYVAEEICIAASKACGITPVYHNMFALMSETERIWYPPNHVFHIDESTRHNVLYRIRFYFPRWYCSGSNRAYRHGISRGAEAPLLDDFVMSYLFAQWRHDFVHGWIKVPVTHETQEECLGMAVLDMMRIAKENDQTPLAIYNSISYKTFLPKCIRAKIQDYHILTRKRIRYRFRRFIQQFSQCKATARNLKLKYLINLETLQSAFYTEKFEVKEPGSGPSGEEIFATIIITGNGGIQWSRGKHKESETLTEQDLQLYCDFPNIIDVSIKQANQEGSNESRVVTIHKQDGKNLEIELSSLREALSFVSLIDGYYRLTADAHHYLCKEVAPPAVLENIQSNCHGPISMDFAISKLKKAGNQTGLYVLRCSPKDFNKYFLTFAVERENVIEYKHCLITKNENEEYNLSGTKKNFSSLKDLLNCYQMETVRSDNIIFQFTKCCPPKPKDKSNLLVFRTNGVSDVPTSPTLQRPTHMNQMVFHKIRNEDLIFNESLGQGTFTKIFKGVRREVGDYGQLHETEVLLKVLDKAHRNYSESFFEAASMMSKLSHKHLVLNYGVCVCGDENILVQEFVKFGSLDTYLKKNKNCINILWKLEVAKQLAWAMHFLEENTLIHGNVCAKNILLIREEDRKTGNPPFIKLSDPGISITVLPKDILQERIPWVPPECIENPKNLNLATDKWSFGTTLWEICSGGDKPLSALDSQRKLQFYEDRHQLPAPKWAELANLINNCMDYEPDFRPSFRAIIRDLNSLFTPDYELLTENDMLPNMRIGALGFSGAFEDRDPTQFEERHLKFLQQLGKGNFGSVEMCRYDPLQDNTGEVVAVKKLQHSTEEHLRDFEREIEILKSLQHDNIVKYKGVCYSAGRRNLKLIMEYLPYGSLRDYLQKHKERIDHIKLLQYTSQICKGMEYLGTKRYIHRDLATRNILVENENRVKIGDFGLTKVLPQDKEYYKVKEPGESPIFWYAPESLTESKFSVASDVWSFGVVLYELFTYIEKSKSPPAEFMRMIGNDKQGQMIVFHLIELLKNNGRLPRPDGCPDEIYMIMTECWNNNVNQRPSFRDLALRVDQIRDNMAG

SH2 binding enrichment (Grb2 SH2)	SH2 binding enrichment (SHP2-C SH2)	SH2 binding enrichment (c-Src SH2)	Sequence	phosphorylation enrichment (Hck)	phosphorylation enrichment (Fer (mouse))	phosphorylation enrichment (FGFR1)	phosphorylation enrichment (Jak2)	phosphorylation enrichment (FGFR3)	phosphorylation enrichment (MERTK)	phosphorylation enrichment (Fes)	phosphorylation enrichment (c-Abl (mouse))	phosphorylation enrichment (EPHB2)	phosphorylation enrichment (EPHB1)	phosphorylation enrichment (c-Src)	phosphorylation enrichment (Fyn)	phosphorylation enrichment (AncSZ)
0.862	1.03	0.865	MGSFNYLGFPR [SPTLC2_Y178_A182P_YF]	0.403	0.418	0.566	1.68	0.534	0.518	0.983	0.584	0.917	1.88	0.615	0.44	0.795
0.813	0.625	0.415	MKGDYYRSLAE [YWHAG_Y131_Y133S]	0.427	0.426	0.96	1.14	0.742	0.44	0.738	0.463	0.508	0.422	0.428	0.466	1.1
0.815	0.568	0.615	MKGDYYRYLAE [YWHAG_Y131]	0.779	0.501	8.62	3.29	6.43	0.718	0.89	0.686	1.02	1.09	0.639	0.741	1.07
1.91	1.55	1.54	MKKQKYGRIIM [HSD17B4_Y143]	0.396	0.565	0.517	0.998	0.971	0.499	0.89	0.771	0.531	0.551	0.422	0.443	0.497
0.67	0.609	0.355	MLEVSYVDRNS [F10_Y384_P383S]	0.437	0.439	0.441	0.876	0.519	0.37	0.758	0.554	0.528	0.48	0.466	0.375	0.651
0.726	0.825	0.477	MPAVTYTPAMR [MEGF10_Y895]	0.415	0.313	0.28	0.743	0.425	0.336	0.569	0.455	0.328	0.253	0.384	0.313	0.481
0.88	0.612	0.514	MSNFACVKREV [SCN1A_Y1694_Y1694C]	0.51	0.437	0.486	0.674	0.592	0.383	0.911	0.506	0.45	0.49	0.446	0.449	0.768
1.07	0.752	0.729	MSRDIYSTDYY [NTRK1_Y676]	3.99	1.5	4.81	1.01	3.6	9.04	0.933	0.733	8.84	6.24	5.12	4.75	1.83
0.894	0.683	0.757	MSRDVYSTDCF [NTRK2_Y702_Y706C_YF]	1.14	0.516	0.64	0.855	0.803	3.02	1.2	0.874	0.675	0.754	2.4	2.71	1
1.14	1.05	0.806	MSRFIYSTDFF [NTRK1_Y676_D674Y_YF]	2.49	0.887	1.47	1.04	1.27	8.57	1.31	0.664	2.11	2.29	4.05	4.15	0.887
0.876	0.704	0.786	MTRDIYRASYY [ALK_Y1278_A1274T]	1.17	0.462	0.844	0.63	0.676	0.827	0.702	2.42	0.579	0.598	1.66	0.888	0.725
0.646	0.521	0.583	MWGSDYVQLSR [MAP3K4_Y582]	1.12	0.383	7.1	5.71	4.02	0.561	0.765	0.53	6.29	9.41	1.08	0.685	1.67
0.89	0.595	0.633	NAGDYYDLYGG [PTPN11_Y63_T59A]	6.95	2.53	19.3	4.53	18.9	3.96	1.55	1.13	15.9	16.3	6.14	7.13	5.5
1.22	1.26	1.04	NFATLHLKIFH [PDE6B_Y219_Y219H_YF]	0.492	0.565	0.652	1.24	0.817	0.56	1.44	0.918	0.74	0.607	0.522	0.519	1.26
2.15	0.889	1.05	NFCPGYNNFFN [USH2A_Y467_R464C_YF]	0.426	0.455	0.415	0.775	0.524	0.458	0.79	0.577	0.43	0.393	0.719	0.434	0.733
0.638	0.782	0.547	NGEDPYAGSTD [XRCC1_Y515]	0.581	0.431	0.646	0.809	0.67	0.399	1.1	0.779	0.508	0.431	0.55	0.524	1.21
1.17	5.12	2.17	NGSFRYVIISQ [LRP1B_Y1988]	0.657	0.513	0.603	0.958	0.71	0.448	1.25	0.727	0.581	0.599	0.422	0.528	1.12

SH2 binding enrichment (Grb2 SH2)	SH2 binding enrichment (SHP2-C SH2)	SH2 binding enrichment (c-Src SH2)	Sequence	phosphorylation enrichment (Hck)	phosphorylation enrichment (Fer (mouse))	phosphorylation enrichment (FGFR1)	phosphorylation enrichment (Jak2)	phosphorylation enrichment (FGFR3)	phosphorylation enrichment (MERTK)	phosphorylation enrichment (Fes)	phosphorylation enrichment (c-Abl (mouse))	phosphorylation enrichment (EPHB2)	phosphorylation enrichment (EPHB1)	phosphorylation enrichment (c-Src)	phosphorylation enrichment (Fyn)	phosphorylation enrichment (AncSZ)
0.862	0.698	0.675	NHYKIYNLYAE [PTEN_Y68_C71Y]	2.54	0.481	0.461	0.664	0.541	0.461	0.723	0.56	0.641	0.455	2.43	2.14	0.749
0.871	0.845	0.567	NKEAIYSGYIR [SMCHD1_Y283]	10.4	3.43	0.565	0.571	0.526	9.45	0.687	24.3	11.2	5.4	7.96	11.3	0.724
0.976	0.888	0.464	NKVQFYIPDMN [NCR1_Y84_K82Q]	0.532	0.447	0.579	1.01	0.711	0.483	0.984	0.744	0.533	0.501	0.431	0.411	0.801
0.862	0.628	2.6	NLDRFYQQVTK [SEC16A_Y1041]	0.599	0.621	0.45	0.639	0.574	0.58	0.766	0.587	0.531	0.516	0.498	0.43	0.734
0.768	0.693	0.682	NNPAFYVLEGV [INPPL1_Y987_YF]	0.485	0.42	0.653	0.87	0.612	0.554	1	0.616	0.581	0.5	0.638	0.699	0.956
1.16	0.811	0.613	NNRVFYGNSDC [RS1_Y177_R182C]	0.429	0.432	0.467	0.862	0.62	0.369	0.863	0.742	0.486	0.489	0.381	0.434	0.954
0.829	0.814	0.783	NPETCYQKLKK [TK2_Y190_R192K]	0.583	0.509	0.444	0.921	0.774	0.386	1.07	0.765	0.451	0.583	0.425	0.428	0.906
1	0.782	0.481	NQNIGYKLGHR [KCNN3_Y268]	0.396	0.322	0.339	0.391	0.358	0.344	0.49	0.313	0.303	0.324	0.398	0.361	0.402
0.788	0.755	1.93	NRLTDYYEPLL [BBS10_Y536]	3.28	2.11	11	1.63	7.93	3.6	0.826	1.61	6.55	8.92	1.33	1.03	2.64
0.788	0.503	0.571	NSNSDYVDILP [SH2D1B_Y127_V130I]	0.623	0.682	3.99	1.09	3.11	0.6	1.22	1	3.01	3.31	0.573	0.514	1.85
0.808	0.626	0.449	NSRYTCKLEVK [USH2A_Y3747_Y3747C]	0.471	0.501	0.471	1.19	0.885	0.387	1.45	0.921	0.57	0.678	0.441	0.407	1.21
0.761	0.547	0.421	NTDETYSIDNE [TUBB2B_Y200_C201S]	0.694	0.63	0.551	1.23	0.715	0.5	1.35	0.886	0.632	0.622	0.726	0.696	1.27
1.08	1.43	2.27	NVGGKYSYLKV [GRM3_Y478]	0.515	0.446	0.449	0.635	0.476	0.448	0.65	0.524	0.39	0.415	0.351	0.358	0.625
1.06	0.607	0.508	NVTRKYSRQIL [MAP3K2_Y463_T464S]	0.361	0.402	0.363	0.417	0.352	0.344	0.446	0.399	0.317	0.356	0.403	0.491	0.425
0.908	0.637	1.48	NVVHEYSSELE [FGB_Y172_N170H]	0.481	0.519	0.472	1.02	0.705	0.473	1.1	0.987	0.656	0.544	0.649	0.436	1.02
1.06	1.03	0.787	NWGKKYPTCNS [PTPRZ1_Y53]	0.463	0.485	0.459	0.85	0.603	0.43	0.978	0.839	0.558	0.507	0.435	0.523	0.771
